Here are results for 7 molecules from PMC9943647, “Structures of pMV158 replication initiator RepB with and without DNA reveal a flexible dual-function protein” (Nucleic Acids Research, 2023).

For data set [1], the target named is T1, RepB OBD (origin binding domain), wt (Streptococcus plasmid pMV158, UniProt P13921 1-131).
T1 sequence: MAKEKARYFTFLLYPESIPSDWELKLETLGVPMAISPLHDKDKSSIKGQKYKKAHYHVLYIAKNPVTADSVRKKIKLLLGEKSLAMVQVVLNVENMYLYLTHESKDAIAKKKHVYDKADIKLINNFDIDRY
Nature of the data set: EMSA; EMSA: 20 mM Tris-HCl pH 8.0, 5 mM DTT, 300 mM NaCl, 20 nM DNA, 20 min 25 C; footprinting same buffer; SPR: 10 mM HEPES pH 7.4, 150 mM NaCl, 3 mM EDTA, 0.005% P20. The settings on record: protein: recombinant; tags: none; label: 5'-Cy5 (top); blunt. For orientation: In EMSA bound probe runs differently from free probe, usually more slowly.

Data set [2] deals with the molecule itself. Nature of the data set: crystal structure; full-length RepB without DNA; hanging drop, 100 mM Na/K phosphate pH 6.2, 200 mM NaCl, 10% PEG 8000; space group P21, 2.77 A.
The target in another data set is OBD triple mutant (Streptococcus plasmid pMV158, UniProt P13921 1-131, K3A;E4A;K5A). Nature of the data set: EMSA; EMSA: 20 mM Tris-HCl pH 8.0, 5 mM DTT, 300 mM NaCl, 20 nM DNA, 20 min 25 C; footprinting same buffer; SPR: 10 mM HEPES pH 7.4, 150 mM NaCl, 3 mM EDTA, 0.005% P20. The settings on record: protein: recombinant; label: 5'-Cy5 (top); blunt.
For another data set, the target named is OBD K76A (Streptococcus plasmid pMV158, UniProt P13921 1-131, K76A). The data set is described as above. The settings on record: protein: recombinant; label: 5'-Cy5 (top); blunt.
Another data set has as its target OBD R72A (Streptococcus plasmid pMV158, UniProt P13921 1-131, R72A). The description is as above. The settings on record: protein: recombinant; label: 5'-Cy5 (top); blunt.
In another data set the target is OBD quadruple mutant (Streptococcus plasmid pMV158, UniProt P13921 1-131, R72A;K73A;K74A;K76A). The data set is described as above. The settings on record: protein: recombinant; label: 5'-Cy5 (top); blunt.
Another data set addresses OBD E4A (Streptococcus plasmid pMV158, UniProt P13921 1-131, E4A). The data set is described as above. The settings on record: protein: recombinant; label: 5'-Cy5 (top); blunt.
The target of another data set is OBD K5A (Streptococcus plasmid pMV158, UniProt P13921 1-131, K5A). Described as above. The settings on record: protein: recombinant; label: 5'-Cy5 (top); blunt.
The target in data set [3] is T1, RepB OBD (origin binding domain), wt. Nature of the data set: SPR; HBS-EP pH 7.4, 150 mM NaCl; specific DNA is 1DDR in text, DDRC in Fig 3; EMSA: 20 mM Tris-HCl pH 8.0, 5 mM DTT, 300 mM NaCl, 20 nM DNA, 20 min 25 C; footprinting same buffer; SPR: 10 mM HEPES pH 7.4, 150 mM NaCl, 3 mM EDTA, 0.005% P20. The settings on record: protein: recombinant; tags: none; label: 5'-Cy5 (top) for EMSA; 5'-biotin for SPR; blunt. (In general: In SPR one partner is held on a chip, and binding of the other changes the refractive index at the surface.)

Data set [4] has the same target. Nature of the data set: EMSA; per DDR site, independent binding, complexes C1-C3; Kd ~0.8 uM; EMSA: 20 mM Tris-HCl pH 8.0, 5 mM DTT, 300 mM NaCl, 20 nM DNA, 20 min 25 C; footprinting same buffer; SPR: 10 mM HEPES pH 7.4, 150 mM NaCl, 3 mM EDTA, 0.005% P20. The settings on record: protein: recombinant; tags: none; label: 5'-Cy5 (top) for EMSA; 32P at both 5' ends for footprinting; blunt.

The target is the same in data set [5]. Description: SPR; HBS-EP pH 7.4, 150 mM NaCl; Results text names 1DDR, but Methods, Table S1 and Fig 3 legend name DDRC; EMSA: 20 mM Tris-HCl pH 8.0, 5 mM DTT, 300 mM NaCl, 20 nM DNA, 20 min 25 C; footprinting same buffer; SPR: 10 mM HEPES pH 7.4, 150 mM NaCl, 3 mM EDTA, 0.005% P20. The settings on record: protein: recombinant; tags: none; label: 5'-Cy5 (top) for EMSA; 5'-biotin for SPR; blunt.

For data set [6] the target is unchanged. Nature of the data set: EMSA; complex half-life <10 s; EMSA: 20 mM Tris-HCl pH 8.0, 5 mM DTT, 300 mM NaCl, 20 nM DNA, 20 min 25 C; footprinting same buffer; SPR: 10 mM HEPES pH 7.4, 150 mM NaCl, 3 mM EDTA, 0.005% P20. The settings on record: protein: recombinant; tags: none; label: 5'-Cy5 (top) for EMSA; 5'-biotin for SPR; blunt.

B1: DDRL (dsDNA)
DNA 1: AATCTCGGCGACTTTTCGG
DNA 2: CCGAAAAGTCGCCGAGATT
By Kd is commonly meant the equilibrium constant for the complex coming apart. As for B1, the equilibrium dissociation constant (Kd) in data set [1] is around 1000 nM.

B2: RepB, replication initiation protein of plasmid pMV158 (full-length hexamer) (natural protein, streptococcal plasmid pMV158, UniProt P13921 1-210, looked up)
chain: MAKEKARYFTFLLYPESIPSDWELKLETLGVPMAISPLHDKDKSSIKGQKYKKAHYHVLYIAKNPVTADSVRKKIKLLLGEKSLAMVQVVLNVENMYLYLTHESKDAIAKKKHVYDKADIKLINNFDIDRYVTLDVEEKTELFNVVVSLIRAYTLQNIFDLYDFIDENGETYGLTINLVNEVIAGKTGFMKLLFDGAYQRSKRGTKNEER
notes: RepB, replication initiator (HUH endonuclease) of the streptococcal plasmid pMV158; Crystallised without DNA; a phosphate sits in each active site instead of Mn2+; also called RepB6; full-length RepB
The term stoichiometry N denotes the number of molecules, sites or subunits per partner or assembly. Turning to B2, the “stoichiometry N” value in [2] is 6.

B3: 1DDR (dsDNA)
DNA 1: AATCTCGGCGACTTTTTAGA
DNA 2: TCTAAAAAGTCGCCGAGATT
Turning to B3, the Kd with OBD triple mutant was found to be 1100 ± 100 nM; in data set [1] it was 1100 ± 100 nM; with OBD K76A it was 5500 ± 700 nM; with OBD R72A, 1700 ± 200 nM; in the data set with OBD E4A it was 600 ± 100 nM; in the data set with OBD K5A, 1800 ± 200 nM. Besides, the binding result in the data set with OBD quadruple mutant is reported as “no binding”.

B4: DDRR (dsDNA)
DNA 1: CTTTTCGGCGACTTTTTAG
DNA 2: CTAAAAAGTCGCCGAAAAG
Take B4: the Kd in [1] was around 1000 nM.

B5: NS (dsDNA)
DNA 1: CGGGTCGGTAATTGGGTTT
DNA 2: AAACCCAATTACCGACCCG
Consider B5, for which the binding signal in [3] is ~15 fold lower affinity than specific DNA.

B6: 3DDR (dsDNA)
DNA 1: AATCTCGGCGACTTTTCGGCGACTTTTCGGCGACTTTTTAGA
DNA 2: TCTAAAAAGTCGCCGAAAAGTCGCCGAAAAGTCGCCGAGATT
Take B6: in data set [4], the Ka came out at 1.2 ± 0.4 µM⁻¹.

B7: DDRC (dsDNA)
DNA 1: CTTTTCGGCGACTTTTCGG
DNA 2: CCGAAAAGTCGCCGAAAAG
Take B7: the figures for the equilibrium dissociation constant (Kd) in [5] and in [6] were 220 ± 10 nM and around 1000 nM, respectively.
